Data published in patent US20210101998A1 (Pfizer, published 2021).
Substitutions are numbered along the chain they refer to. Where two headings read alike, the source gives them in different places.

Columns and labels:
[1] = molecular target: T1, rabTFPI K1K2 (rabbit, limits assumed); assay: ELISA, biotinylated TFPI on streptavidin plate
T1 construct: also called Rabbit TFPI K1K2; rabbit TFPI
T1 chain: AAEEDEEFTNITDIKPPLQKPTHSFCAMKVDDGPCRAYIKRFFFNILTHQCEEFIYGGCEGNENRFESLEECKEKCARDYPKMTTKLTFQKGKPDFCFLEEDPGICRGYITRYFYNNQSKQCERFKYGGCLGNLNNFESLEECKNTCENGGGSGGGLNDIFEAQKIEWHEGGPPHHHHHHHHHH

[2] = molecular target: T2, humTFPI K1K2 (human); assay: ELISA, biotinylated TFPI on streptavidin plate
T2 construct: Biotinylated on the AviTag for ELISA; also called Human TFPIα K1K2; humTFPI K1K2-aviHis10

[3] = molecular target: T2, humTFPI K1K2; assay: SPR, antibody ligand, TFPI analyte;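 on result: surface plasmon resonance on a BIAcore T200 at 25 °C, test antibody captured on immobilized anti-human IgG, TFPI K1K2 flowed as analyte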
Description: (§1) The flow cells were activated by injecting a 1:1 mixture of 400 mM 1-Ethyl-3-(3-dimethylaminopropyl) carbodiimide hydrochloride (EDC) and N-hydroxysuccinimide (NHS) for 7 minutes at a flow rate of 10 μl/minute. Anti-human IgG antibody was diluted to 25 μg/ml in 10 mM Sodium Acetate pH 5.0 and injected over all flow cells for 7 minutes at 10 ul/minute. All flow cells were blocked with 1 M Ethanolamine-HCL (ETH) for 7 minutes at 10 μl/minute. Final immobilization level of the capture antibody was approximately 10,000 resonance units (RU). The running buffer for immobilization and kinetics was 10 mM HEPES pH 7.4, 150 mM NaCl, 3 mM EDTA, 0.05% (v/v) Tween-20 (HBS-EP+). […] Flow cell 1 was used as a reference surface. […] At the end of each cycle, the entire anti-IgG surface was regenerated by a 60 second pulse of 3 M MgCl2. Kinetic assays were conducted at 25° C. at a collection rate of 10 Hz on a BIAcore T200 instrument (GE Healthcare). Rate constants and affinities were determined by fitting the data to a 1:1 model in BIAcore T200 Evaluation software version 1.0 (GE).

[4] = molecular target: T3, murTFPI K1K2 (mouse); assay: SPR, antibody ligand, TFPI analyte
T3 construct: also called Mouse TFPI K1K2; mouse TFPI
T3 chain: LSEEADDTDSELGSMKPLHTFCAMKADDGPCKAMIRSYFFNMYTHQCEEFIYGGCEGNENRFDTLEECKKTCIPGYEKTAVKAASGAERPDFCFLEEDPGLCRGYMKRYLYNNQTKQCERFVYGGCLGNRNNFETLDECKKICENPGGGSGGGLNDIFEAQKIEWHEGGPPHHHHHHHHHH

[5] = molecular target: T2, humTFPI K1K2; assay: SPR, antibody ligand, TFPI analyte; remark: listed apart in the source;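 on result: surface plasmon resonance on a BIAcore T200 at 25 °C, test antibody captured on immobilized anti-human IgG, TFPI K1K2 flowed as analyte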
[6] = molecular target: T2, humTFPI K1K2; assay: cell-based or functional assay
[7] = molecular target: T2, humTFPI K1K2; assay: cell-based or functional assay; remark: listed apart in the source
[8] = molecular target: T3, murTFPI K1K2; assay: SPR, summary table
Description: as §1

[9] = molecular target: T1, rabTFPI K1K2; assay: SPR, summary table
Description: as §1

[10] = molecular target: T4, cynTFPI K1K2 (cynomolgus monkey); assay: SPR, summary table
T4 construct: also called Cynomolgus Monkey TFPI K1K2; cyno TFPI K1K2
Description: as §1

[11] = molecular target: T2, humTFPI K1K2; assay: SPR, summary table
Description: as §1

[12] = molecular target: T1, rabTFPI K1K2; assay: SPR, antibody ligand, TFPI analyte
Description: as §1

[13] = molecular target: T4, cynTFPI K1K2; assay: SPR, antibody ligand, TFPI analyte;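 further: surface plasmon resonance on a BIAcore T200 at 25 °C, test antibody captured on immobilized anti-human IgG, TFPI K1K2 flowed as analyte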
Description: as §1

[14] = molecular target: T5, ratTFPI K1K2 (rat); assay: SPR, antibody ligand, TFPI analyte;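 further: surface plasmon resonance on a BIAcore T200 at 25 °C, test antibody captured on immobilized anti-human IgG, TFPI K1K2 flowed as analyte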
T5 chain: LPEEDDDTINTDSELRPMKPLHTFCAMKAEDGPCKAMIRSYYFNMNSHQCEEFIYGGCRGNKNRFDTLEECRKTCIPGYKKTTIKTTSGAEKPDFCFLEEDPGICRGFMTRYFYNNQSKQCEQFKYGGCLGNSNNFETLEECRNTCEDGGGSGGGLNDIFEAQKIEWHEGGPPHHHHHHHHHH
Description: as §1

[15] = molecular target: T2, humTFPI K1K2; assay: SPR, antibody ligand, TFPI analyte; remark: listed apart in the source
Description: as §1

[16] = molecular target: T1, rabTFPI K1K2; assay: ELISA, biotinylated TFPI on streptavidin plate
Description: (§2) Purified anti-TFPI antibodies were diluted to 1 ug/ml in ELISA assay buffer, then serially diluted three-fold to generate an eight-point dilution series. The diluted antibodies were added at a volume of 100 uL per well. The plates were incubated at room temperature for 2 hours. After washing the plates with PBS/0.05% Tween 20, the plates were incubated with a goat anti-mouse IgG-Fc polyclonal antibody conjugated with horseradish peroxidase (Pierce) at 1:10,000 dilution. After 1 hour of incubation, bound antibody was detected with the addition of a TMB substrate solution. Absorbances were read a 450 nm, and the data were analyzed by GraphPad Prism software.

[17] = molecular target: T2, humTFPI K1K2; assay: ELISA, biotinylated TFPI on streptavidin plate; remark: listed apart in the source
Description: as §2

[18] = molecular target: T1, rabTFPI K1K2; assay: SPR, antibody ligand, TFPI analyte
[19] = molecular target: T2, humTFPI K1K2; assay: SPR, antibody ligand, TFPI analyte; remark: listed apart in the source
[20] = molecular target: T2, humTFPI K1K2; assay: cell-based or functional assay; remark: listed apart in the source

B1: 4D8-Vk1.1 × VH1.1 (antibody, human IgG1, kappa, V domains shown)
VH: EVQLVESGGGLVQPGGSLRLSCAASGYTFTDYNLDWVRQAPGKGLEWVGDINPINGATLYNQKFKGRATISVDQAKNSAYLQMNSLRAEDTAVYYCARYYGDYDAMDYWGQGTLVTVSS
VL: DIQMTQSPSSLSASVGDRVTITCKASQDVHTAVAWYQQKPGKAPKLLIYWASTRHTGVPSRFSGSGSGTDYTLTISSLQPEDFATYYCQQHYTTPYTFGQGTKLEIKR
notes: Humanized 4D8 variant
[1]
  EC50: 0.0788 nM
[2]
  EC50: 0.0818 nM
[3]
  Kd: 0.832 nM
  koff: 0.000161 s⁻¹
  kon: 193000 M⁻¹ s⁻¹

B2: 4D8-Vk1.1 × VH1.2 (antibody, human IgG1, kappa, V domains shown)
VH: B1 VH with A68F, V72R, Q74N, A79L
VL: B1 VL
notes: Humanized 4D8 variant
[1]
  EC50: 0.0783 nM
[2]
  EC50: 0.059 nM
[3]
  Kd: 0.627 nM
  koff: 9.49e-05 s⁻¹
  kon: 151000 M⁻¹ s⁻¹

B3: 4D8-Vk1.1 × VH1.3 (antibody, human IgG1, kappa, V domains shown)
VH: B1 VH with G49A, V72R, Q74N, A79L
VL: B1 VL
notes: Humanized 4D8 variant
[1]
  EC50: 0.0511 nM
[2]
  EC50: 0.0651 nM
[3]
  Kd: 0.823 nM
  koff: 0.000131 s⁻¹
  kon: 159000 M⁻¹ s⁻¹

B4: TFPI-3 (antibody, human IgG1, kappa, V domains shown)
VH: not shown
VL: AIQLTQSPSSLSASVGDRVTITCRASQGISSSLAWYQQKPGKAPKLLIYAASTLQSGVPSRFSGSGSGTDFTLTISSLQPEDFATYYCQQLDSYPLSFGQGTKLEIKR
notes: Human IgG1-3M from phage display; also called mAb-TFPI-3
[4]
  Kd: 3.81 nM
  koff: 0.000824 s⁻¹
  kon: 215000 M⁻¹ s⁻¹
[5]
  Kd: 27.1 nM
  koff: 0.0017 s⁻¹
  kon: 62500 M⁻¹ s⁻¹
[6]
  FXa EC50: 208 nM
  FXa-FVIIa EC50: 37.4 nM

B5: TFPI-26 (antibody, human IgG1, lambda, V domains shown)
VH: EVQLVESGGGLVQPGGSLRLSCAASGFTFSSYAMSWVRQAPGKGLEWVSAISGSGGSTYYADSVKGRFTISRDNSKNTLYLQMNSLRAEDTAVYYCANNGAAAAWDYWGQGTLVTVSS
VL: QSVLTQPPSLSGAPGQRVTISCTGSSSNLGADYDVQWYQQLPGTAPKLLIFGNNNRPSGVPDRFSGSRSGTSASLAITGLQAEDEANYYCQSYDRSLSGSMVFGGGTKLTVLG
notes: Human IgG1-3M from phage display; also called mAb-TFPI-26
[4]
  Kd: 3.68 nM
  koff: 0.00476 s⁻¹
  kon: 1.29e+06 M⁻¹ s⁻¹
[5]
  Kd: 5.79 nM
  koff: 0.00118 s⁻¹
  kon: 205000 M⁻¹ s⁻¹
[6]
  FXa EC50: 12.8 nM
  FXa-FVIIa EC50: 9.6 nM

B6: hz4F36 (antibody, human IgG4 S228P, kappa, V domains shown)
VH: EVQLVESGGGLVKPGGSLRLSCAASGFTFSNYAMSWVRQTPEKRLEWVATISRSGSYSYFPDSVQGRFTISRDNAKNSLYLQMNSLRAEDTAVYYCARLGGYDEGDAMDSWGQGTTVTVSS
VL: DIVMTQTPLSLSVTPGQPASISCKSSQSLLESDGKTYLNWYLQKPGQSPQLLIYLVSILDSGVPDRFSGSGSGTDFTLKISRVEAEDVGVYYCLQATHFPQTFGGGTKVEIKR
notes: also called Novo2021; Anti-TFPI-4F36
[7]
  FVIIa/TF/Xa EC50: 1.85 nM
  Xa Inhibition Assay EC50: 6.57 nM
[8]
  binding result: no binding
[9]
  Kd: 1.81 nM
[10]
  Kd: 0.425 nM
[11]
  Kd: 0.493 nM
[12]
  Kd: 1.81 nM
  koff: 0.0076 s⁻¹
  kon: 4.2e+06 M⁻¹ s⁻¹
[13]
  Kd: 0.425 nM
  koff: 0.00288 s⁻¹
  kon: 6.86e+06 M⁻¹ s⁻¹
[14]
  binding result: no binding
[15]
  Kd: 0.49 nM
  koff: 0.00093 s⁻¹
  kon: 1.89e+06 M⁻¹ s⁻¹

B7: 6B7.c5 (antibody, mouse IgG1, kappa, V domains shown)
VH: EVLLQQSGPELVKPGSSVKIPCKASGYTFTDYTMDWVKQSHGKSLEWIGDINPSNGGSIYNRKFKGKATLTVDKSSSTAYMELRSLTSEDTAVYYCARMHYNYDGFPYWGQGTLVTVSA
VL: DIVMTQSHKFMSTSVGDRVSITCKASQDVITAVAWYQQKPGQSPKLLIYWASTRHTGVPVRFTGSGSGTDYTLTIISVQAEDLALYYCQQHYSTPYTFGGGTKLEIKA
notes: Mouse hybridoma antibody; also called mouse 6b7.c5
[16]
  EC50: 0.129 nM
[17]
  EC50: 0.121 nM
[18]
  Kd: 4.95 nM
  koff: 0.00564 s⁻¹
  kon: 1.14e+06 M⁻¹ s⁻¹
[19]
  Kd: 6.58 nM
  koff: 0.00363 s⁻¹
  kon: 552000 M⁻¹ s⁻¹
[20]
  FXa EC50: 13.9 nM
  FXa-FVIIa EC50: 12.1 nM

B8: 7A4.D9 (antibody, mouse IgG1, kappa, V domains shown)
VH: EVQLQQSGPELVKPGASVKMSCKASGYTFTSYVMHWVKQKPGQGLEWIGYLNPYNDGTKYNEKFKGKASLISDKSSSTVYMELSSLTSEDSAVYYCATTLLYAMDYWGQGSSVTVSS
VL: DIVLTQSPASLAVSLGQRATISCRASKSVSTSGYTYMHWYQQKPGQPPKLLIYLASNLESGVPARFSGSGSGTDFTLNIHPVEEEDAAAYYCQHIRELPFTFGSGTKLEIKA
notes: Mouse hybridoma antibody; also called mouse 7A4.D9
[16]
  EC50: 0.0887 nM
[17]
  EC50: 0.0887 nM
[18]
  Kd: 3.55 nM
  koff: 0.0188 s⁻¹
  kon: 5.3e+06 M⁻¹ s⁻¹
[19]
  Kd: 6.22 nM
  koff: 0.00921 s⁻¹
  kon: 1.48e+06 M⁻¹ s⁻¹
[20]
  FXa EC50: 22.3 nM
  FXa-FVIIa EC50: 9.35 nM
